Results taken from IntAct's records for PubMed 17986188.

B1: Cell division protein FtsA (Escherichia coli (strain K12)), P0ABH0 (parent)
chain: MIKATDRKLVVGLEIGTAKVAALVGEVLPDGMVNIIGVGSCPSRGMDKGGVNDLESVVKCVQRAIDQAELMADCQISSVYLALSGKHISCQNEIGMVPISEEEVTQEDVENVVHTAKSVRVRDEHRVLHVIPQEYAIDYQEGIKNPVGLSGVRMQAKVHLITCHNDMAKNIVKAVERCGLKVDQLIFAGLASSYSVLTEDERELGVCVVDIGGGTMDIAVYTGGALRHTKVIPYAGNVVTSDIAYAFGTPPSDAEAIKVRHGCALGSIVGKDESVEVPSVGGRPPRSLQRQTLAEVIEPRYTELLNLVNEEILQLQEKLRQQGVKHHLAAGIVLTGGAAQIEGLAACAQRVFHTQVRIGAPLNITGLTDYAQEPYYSTAVGLLHYGKESHLNGEAEVEKRVTASVGSWIKRLNSWLRKEF
B2: Cell division protein FtsA (Escherichia coli (strain K12)), P0ABH0 (parent)
chain: B1 chain
partner: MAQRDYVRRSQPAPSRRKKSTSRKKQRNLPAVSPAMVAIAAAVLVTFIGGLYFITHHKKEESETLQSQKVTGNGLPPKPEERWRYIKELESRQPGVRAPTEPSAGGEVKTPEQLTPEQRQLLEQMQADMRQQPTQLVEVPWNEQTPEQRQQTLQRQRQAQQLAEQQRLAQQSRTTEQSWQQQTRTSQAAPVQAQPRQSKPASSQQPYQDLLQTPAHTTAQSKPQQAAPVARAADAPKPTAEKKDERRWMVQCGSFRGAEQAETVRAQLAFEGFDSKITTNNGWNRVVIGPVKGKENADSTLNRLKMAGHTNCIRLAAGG

Variants of: B1
Conditions: with ftsz_ecoli ftsZ

Variant | effect of a mutation on the interaction
MIKATDRKLVVGLEIGTAKVAALVGEVLPDGMVNIIGVGSCPSRGMDKGGVNDLESVVKCVQRAIDQAPLMADCQISSVYLALSGKHISCQNEIGMVPISEEEVTQEDVENVVHTAKSVRVRDEHRVLHVIPQEYAIDYQEGIKNPVGLSGVRMQAKVHLITCHNDMAKNIVKAVERCGLKVDQLIFAGLASSYSVLTEDERELGVCVVDIGGGTMDIAVYTGGALRHTKVIPYAGNVVTSDIAYAFGTPPSDAEAIKVRHGCALGSIVGKDESVEVPSVGGRPPRSLQRQTLAEVIEPRYTELLNLVNEEILQLQEKLRQQGVKHHLAAGIVLTGGAAQIEGLAACAQRVFHTQVRIGAPLNITGLTDYAQEPYYSTAVGLLHYGKESHLNGEAEVEKRVTASVGSWIKRLNSWLRKEF [E69P] | decreasing interaction strength
R286W | increasing interaction strength

Variants of: B2
Conditions: with ftsn_ecoli ftsN

Variant | effect of a mutation on the interaction
MIKATDRKLVVGLEIGTAKVAALVGEVLPDGMVNIIGVGSCPSRGMDKGGVNDLESVVKCVQRAIDQAELAADCQISSVYLALSGKHISCQNEIGMVPISEEEVTQEDVENVVHTAKSVRVRDEHRVLHVIPQEYAIDYQEGIKNPVGLSGVRMQAKVHLITCHNDMAKNIVKAVERCGLKVDQLIFAGLASSYSVLTEDERELGVCVVDIGGGTMDIAVYTGGALRHTKVIPYAGNVVTSDIAYAFGTPPSDAEAIKVRHGCALGSIVGKDESVEVPSVGGRPPRSLQRQTLAEVIEPRYTELLNLVNEEILQLQEKLRQQGVKHHLAAGIVLTGGAAQIEGLAACAQRVFHTQVRIGAPLNITGLTDYAQEPYYSTAVGLLHYGKESHLNGEAEVEKRVTASVGSWIKRLNSWLRKEF [M71A] | decreasing interaction strength
MIKATDRKLVVGLEIGTAKVAALVGEVLPDGMVNIIGVGSCPSRGMDKGGVNDLESVVKCVQRAIDQAPLMADCQISSVYLALSGKHISCQNEIGMVPISEEEVTQEDVENVVHTAKSVRVRDEHRVLHVIPQEYAIDYQEGIKNPVGLSGVRMQAKVHLITCHNDMAKNIVKAVERCGLKVDQLIFAGLASSYSVLTEDERELGVCVVDIGGGTMDIAVYTGGALRHTKVIPYAGNVVTSDIAYAFGTPPSDAEAIKVRHGCALGSIVGKDESVEVPSVGGRPPRSLQRQTLAEVIEPRYTELLNLVNEEILQLQEKLRQQGVKHHLAAGIVLTGGAAQIEGLAACAQRVFHTQVRIGAPLNITGLTDYAQEPYYSTAVGLLHYGKESHLNGEAEVEKRVTASVGSWIKRLNSWLRKEF [E69P] | decreasing interaction strength
